Source: US20160235855A1, “STABLE AQUEOUS PARENTERAL PHARMACEUTICAL COMPOSITIONS OF INSULINOTROPIC PEPTIDES” (SHANGHAI BENEMAE PHARMACEUTICAL CORPORATION, priority 2013, published 2016)
Entries after “also recorded” stand apart in the source; their conditions may differ.

Columns and labels:
[1] = Observation of appearance with the naked eye (physical stability); assay type: physicochemical
Source text: Each buffer was also designed to have 4 salt concentrations.
If there was evident precipitation or turbidity, no further determination would be carried out. If the samples had no abnormal phenomena observable with the naked eye, the samples were taken and subjected to determination of absorption values at 360 nm and HPLC detection, wherein the former investigated the physical stability, and the latter investigated the chemical stability.
The solutions were mixed uniformly, filtered through a 0.22 μm filter membrane, dispensed into 2 mL Penicillin bottles, and placed at different temperatures for investigation. A series of sampling time points were arranged. After sampling, the samples were firstly observed with the naked eye for appearance.
The solutions were adjusted to pH 3.5-4.0, mixed uniformly, filtered through a 0.22 μm filter membrane, dispensed into 2 mL Penicillin bottles, and placed at different temperatures for investigation. A series of sampling time points were arranged. The samples were firstly observed with the naked eye for appearance. If no evident turbidity or gelatination was occurred, the sample was considered as qualified as for physical stability, and then subjected to HPLC detection to analyze the chemical stability.

[2] = HPLC analysis of GLP-1 on C18 column (chemical stability); assay type: physicochemical; conditions: 8 days
Method: An investigation method for chemical stability: a test sample was taken, and analyzed on a C18 column (3.5 μm, 300 Å, φ 4.6×50 mm). An analytical method: mobile phase A was 0.1% trifluoroacetic acid, B was the A phase with 80% acetonitrile added therein, the detection wavelength was 280 nm, 60% A and 40% B were balanced for 3 min, and the sample amount was 2 to 5 μL. Elution was performed with linear gradient for 8 min with 40% to 53% of the B phase and 60% to 47% of the A phase. Peak area was calculated using the normalization method. A standard sample was determined with the same method. The peptide concentration in the sample was calculated by comparison with the standard sample, and compared with the determination result at day 0, to calculate the retention of the peptide content in the sample. A higher retention of the peptide content indicated better chemical stability.
The HPLC detection method was performed according to Example 1.
The formulation method and HPLC detection method of the pharmaceutical compositions were performed according to Example 5.

Glucagon-like peptide 1 [GLP-1]
Situations of samples after preparation ([1]; 20 mmol/L Na2HPO4-NaH2PO4 pH 7.0, NaCl 0 mmol/L): Clear and transparent | Situations of samples after preparation ([1]; 20 mmol/L Na2HPO4-NaH2PO4 pH 7.0, NaCl 20 mmol/L): Clear and transparent | Situations of samples after preparation ([1]; 20 mmol/L Na2HPO4-NaH2PO4 pH 7.0, NaCl 150 mmol/L): Clear and transparent | Situations of samples after preparation ([1]; 20 mmol/L Na2HPO4-NaH2PO4 pH 7.0, NaCl 500 mmol/L): Clear and transparent | Situations of samples after preparation ([1]; 20 mmol/L Na2HPO4-NaH2PO4 pH 7.5, NaCl 0 mmol/L): Clear and transparent | Situations of samples after preparation ([1]; 20 mmol/L Na2HPO4-NaH2PO4 pH 7.5, NaCl 20 mmol/L): Clear and transparent | Situations of samples after preparation ([1]; 20 mmol/L Na2HPO4-NaH2PO4 pH 7.5, NaCl 150 mmol/L): Clear and transparent | Situations of samples after preparation ([1]; 20 mmol/L Na2HPO4-NaH2PO4 pH 7.5, NaCl 500 mmol/L): Clear and transparent | Situations of samples after preparation ([1]; 20 mmol/L NaAC-HAC pH 3.0, NaCl 0 mmol/L): Clear and transparent | Situations of samples after preparation ([1]; 20 mmol/L NaAC-HAC pH 3.0, NaCl 20 mmol/L): Clear and transparent | Situations of samples after preparation ([1]; 20 mmol/L NaAC-HAC pH 3.0, NaCl 150 mmol/L): Clear and transparent | Situations of samples after preparation ([1]; 20 mmol/L NaAC-HAC pH 3.0, NaCl 500 mmol/L): Clear and transparent | Situations of samples after preparation ([1]; 20 mmol/L NaAC-HAC pH 3.5, NaCl 0 mmol/L): Clear and transparent | Situations of samples after preparation ([1]; 20 mmol/L NaAC-HAC pH 3.5, NaCl 20 mmol/L): Clear and transparent | Situations of samples after preparation ([1]; 20 mmol/L NaAC-HAC pH 3.5, NaCl 150 mmol/L): Clear and transparent | Situations of samples after preparation ([1]; 20 mmol/L NaAC-HAC pH 3.5, NaCl 500 mmol/L): Turbid | Situations of samples after preparation ([1]; 20 mmol/L NaAC-HAC pH 4.0, NaCl 0 mmol/L): Clear and transparent | Situations of samples after preparation ([1]; 20 mmol/L NaAC-HAC pH 4.0, NaCl 20 mmol/L): Clear and transparent | Situations of samples after preparation ([1]; 20 mmol/L NaAC-HAC pH 4.0, NaCl 150 mmol/L): Clear and transparent | Situations of samples after preparation ([1]; 20 mmol/L NaAC-HAC pH 4.0, NaCl 500 mmol/L): Turbid | Situations of samples after preparation ([1]; 20 mmol/L NaAC-HAC pH 4.5, NaCl 0 mmol/L): Difficult to filter | Situations of samples after preparation ([1]; 20 mmol/L NaAC-HAC pH 4.5, NaCl 20 mmol/L): Difficult to filter | Situations of samples after preparation ([1]; 20 mmol/L NaAC-HAC pH 4.5, NaCl 150 mmol/L): Difficult to filter | Situations of samples after preparation ([1]; 20 mmol/L NaAC-HAC pH 4.5, NaCl 500 mmol/L): Difficult to filter,; also recorded: turbid | Situations of samples after preparation ([1]; 20 mmol/L NaAC-HAC pH 5.0, NaCl 0, 20, 150, 500 mmol/L): Turbid or precipitated | Situations of samples after preparation ([1]; 20 mmol/L citrate sodium-citric acid pH 5.5, NaCl 0, 20, 150, 500 mmol/L): Turbid or precipitated | Situations of samples after preparation ([1]; 20 mmol/L citrate sodium-citric acid pH 6.0, NaCl 0 mmol/L): Precipitate sticking | Situations of samples after preparation ([1]; 20 mmol/L citrate sodium-citric acid pH 6.0, NaCl 20 mmol/L): Precipitate sticking | Situations of samples after preparation ([1]; 20 mmol/L citrate sodium-citric acid pH 6.0, NaCl 150 mmol/L): Precipitate sticking | Situations of samples after preparation ([1]; 20 mmol/L citrate sodium-citric acid pH 6.0, NaCl 500 mmol/L): Precipitate sticking | Situations of samples after preparation ([1]; 20 mmol/L citrate sodium-citric acid pH 6.5, NaCl 0 mmol/L): Turbid | Situations of samples after preparation ([1]; 20 mmol/L citrate sodium-citric acid pH 6.5, NaCl 20 mmol/L): Turbid | Situations of samples after preparation ([1]; 20 mmol/L citrate sodium-citric acid pH 6.5, NaCl 150 mmol/L): Turbid | Situations of samples after preparation ([1]; 20 mmol/L citrate sodium-citric acid pH 6.5, NaCl 500 mmol/L): Turbid | Appearance of the sample ([1]; pH 3.0): no turbidity or precipitation | Appearance of the sample ([1]; pH 3.5 and pH 4.0, 0.5 M NaCl): turbidity | Appearance of the sample (no determination carried out) ([1]; pH 4.0, NaCl 29.22 mg/mL): Samples became turbid after formulation. | Appearance of the sample prepared ([1]; pH 4.5): clear and transparent | Appearance of the sample (no determination carried out) ([1]; pH 4.5, NaCl 29.22 mg/mL): Samples became turbid after formulation. | Appearance after formulation and heating treatment ([1]; pH 4.5, high salt concentration): turbidity | Appearance while the GLP-1 sample was prepared ([1]; pH 5.0 to 6.5): turbidity or precipitation | Appearance of the sample (no determination carried out) ([1]; pH 6.5, NaCl 0, 1.17, 8.77, 29.22 mg/mL): Turbidity was generated after formulation and | Appearance ([1]; pH value between about 4.5 and 6.5): turbidity or precipitation | Results of HPLC analysis, retention of the peptide content ([2]; pH 3.0, NaCl 0 mg/mL, 35° C.): 95.46% | Results of HPLC analysis, retention of the peptide content ([2]; pH 3.0, NaCl 0 mg/mL, 45° C.): 87.19% | Results of HPLC analysis, retention of the peptide content ([2]; pH 3.0, NaCl 1.17 mg/mL, 35° C.): 93.69% | Results of HPLC analysis, retention of the peptide content ([2]; pH 3.0, NaCl 1.17 mg/mL, 45° C.): 87.93% | Results of HPLC analysis, retention of the peptide content ([2]; pH 3.0, NaCl 8.77 mg/mL, 35° C.): 95.03% | Results of HPLC analysis, retention of the peptide content ([2]; pH 3.0, NaCl 8.77 mg/mL, 45° C.): 87.86% | Results of HPLC analysis, retention of the peptide content ([2]; pH 3.0, NaCl 29.22 mg/mL, 35° C.): 96.42% | Results of HPLC analysis, retention of the peptide content ([2]; pH 3.0, NaCl 29.22 mg/mL, 45° C.): 91.16% | Results of HPLC analysis, retention of the peptide content ([2]; pH 3.5, NaCl 0 mg/mL, 35° C.): 94.73% | Results of HPLC analysis, retention of the peptide content ([2]; pH 3.5, NaCl 0 mg/mL, 45° C.): 88.66% | Results of HPLC analysis, retention of the peptide content ([2]; pH 3.5, NaCl 1.17 mg/mL, 35° C.): 96.92% | Results of HPLC analysis, retention of the peptide content ([2]; pH 3.5, NaCl 1.17 mg/mL, 45° C.): 92.54%
